From patent publication US20250042970A1 (AURINIA PHARMACEUTICALS, published 2025) come the findings set out here.

Residue numbers refer to the chain shown, from its start. Ends that are not written are not given here. pIg22 = chimeric Ig-Fc consisting of the CH2 domain of PIg18 (IgG2 derivative) and the CH3 domain of IgG1

T1: FLAG-tagged cynomolgous APRIL (cynomolgus monkey, UniProt A0ACM8R0G4 110-250 (rhesus entry))
T1 construct: FLAG-tagged, expressed with TPA signal peptide; also called cyAPRIL
T1 sequence: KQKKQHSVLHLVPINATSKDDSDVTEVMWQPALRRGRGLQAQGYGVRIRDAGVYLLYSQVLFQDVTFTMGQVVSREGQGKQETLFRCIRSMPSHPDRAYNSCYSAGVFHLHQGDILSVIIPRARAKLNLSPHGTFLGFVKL

T2: FLAG-tagged recombinant human APRIL (human, UniProt O75888 105-250)
T2 construct: KINEXA ligand; also called huAPRIL
T2 sequence: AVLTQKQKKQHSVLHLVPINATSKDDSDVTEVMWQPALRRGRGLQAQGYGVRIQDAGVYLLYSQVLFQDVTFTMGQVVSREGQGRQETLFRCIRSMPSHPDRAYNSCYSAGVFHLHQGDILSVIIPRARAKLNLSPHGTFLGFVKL

B1: BAv81-5L-pIg22 (Fc fusion, human)
chain: AGQCSQNEYFDPLVRACIPCQVRCSSNTPPLTCQRYCNAGVTNSVGGGGS-pIg22
modifications: not fully specified; cysteine pairing not given here
notes: domain: Fc; not shown: PIg22: chimeric Fc, CH2 domain of PIg18 (human IgG2 derivative) and CH3 domain of human IgG1
B2: BAv85-5L-pIg22 (Fc fusion, human)
chain: AGQCSQNEYFDHLVRACIPCQARCSSNTPPLTCQRYCNAGVTNSVGGGGS-pIg22
modifications: not fully specified; cysteine pairing not given here
notes: as for B1
B3: BAv49-5L-pIg22 (Fc fusion, human)
chain: AGQCSQNEYFDPLIRACIPCQVRCSSNTPPLTCQRYCNAGVTNSVGGGGS
notes: as for B1
B4: BAv83-5L-pIg22 (Fc fusion, human)
chain: AGQCSQNEYFDPLVRACIPCQIRCSSNTPPLTCQRYCNAGVTNSVGGGGS-pIg22
modifications: not fully specified; cysteine pairing not given here
notes: as for B1
B5: Variant 9-3-Ig (Fc fusion, human)
chain: AGQCSQNEYFDHLVRACIPCQVRCSSNTPPLTCQRYCNAGVTNSVKGTNAERKSSVECPPSPAPPVAGPSVFLFPPKPKDTLMISRTPEVTCVVVDVSHEDPEVQFNWYVDGVEVHNAKTKPREEQFNSTFRVVSVLTVVHQDWLNGKEYKCKVSNKGLPAPIEKTISKTKGQPREPQVYTLPPSREEMTKNQVSLTCLVKGFYPSDISVEWESNGQPENNYKTTPPMLDSDGSFFLYSKLTVDKSRWQQGNVFSCSVMHEALHNHYTQKSLSLSPGK
notes: domain: Fc; also called BAv9-3
B6: BAv51-Ig (Fc fusion)
chain: B3 chain with P12H, V22A, G46K, G48T, G49N, S50A
notes: also called BAv51 (2)-Ig; not shown: PIg18: human IgG2 Fc, Ser at Fc positions 4, 5, 11 (native Cys)
B7: BAv58-Ig (Fc fusion)
chain: AGQCSQNEYFDSLVRHCIPCQIRCSSNTPPLTCQRYCNAGVTNSVKGTNA
notes: not shown: PIg18: human IgG2 Fc, Ser at Fc positions 4, 5, 11 (native Cys)
B8: BAv53-Ig (Fc fusion)
chain: B7 chain with V14I, I22V
notes: as for B7
B9: BAv74-Ig (Fc fusion)
chain: B7 chain with S12H, V14I, H16A, I18T, I22V
notes: as for B7
B10: BAv60-Ig (Fc fusion)
chain: B7 chain with I22V
notes: also called BAv60 (2)-Ig; not shown: PIg18: human IgG2 Fc, Ser at Fc positions 4, 5, 11 (native Cys)
B11: BAv45-Ig (Fc fusion)
chain: B7 chain with S12H, V14L, H16A, I22V, R23N
notes: as for B7
B12: BAv78-Ig (Fc fusion)
chain: B7 chain with S12H, V14L, H16A, I22Y, R23T
notes: as for B7
B13: BAv79-Ig (Fc fusion)
chain: B7 chain with S12P, V14I, H16A, I22A
notes: as for B7
B14: BAv64-Ig (Fc fusion)
chain: B7 chain with S12H, V14Y, H16A, I22V
notes: as for B7
B15: BAv63-Ig (Fc fusion)
chain: B7 chain with S12H, V14A, H16A, I22V
notes: as for B7
B16: BAv82-Ig (Fc fusion)
chain: B7 chain with S12P, H16A, I22A
notes: as for B7
B17: BAv55-Ig (Fc fusion)
chain: B7 chain with S12H, V14G, H16A, I22V
notes: as for B7

One test addresses T1, FLAG-tagged cynomolgous APRIL. Nature of the test: BIACORE SPR. The protocol:
(§1) For human BAFF, cynomolgus monkey APRIL, and mouse APRIL measurements, mouse monoclonal antibody (IgG1) anti-FLAG M2 (Sigma Aldrich, Cat. No. F1804) was immobilized on CM3 sensor chips (GE Healthcare, Cat. No. BR-1005-41) according to the manufacturer's protocol. Antibody was diluted to 30 μg/ml in immobilization buffer (10 mM pH 5±0.20; GE Healthcare; GE Healthcare, Catalog No. BR-1003-51). […] Unreacted sites were quenched with 35 μl of 1M ethanolamine-HCl, pH 8.5 (GE Healthcare, GE Healthcare, Cat. No. BR-1000-50). This procedure typically yielded 3,000-4,000 response units (RU) of coupled antibody.
(§2) The fusion polypeptides were diluted in HBS-EP buffer and flowed over ligand-coated sensor chips. The variant BCMA-Ig and surrogate control fusion proteins were injected at three concentrations (1.5 nM, 15 nM, and 150 nM at 30 μl/min for 2 minutes per association phase) in a single binding cycle, followed by a 20 minute incubation with HBS-EP buffer containing no protein at the same flow rate. A similar protocol was followed for Z-TACI-Ig, except that the injections were at 4.5 nM, 45 nM, and 450 nM.
(§3) The various fusion proteins described above were expressed and purified as described previously (Examples 2 and 3 for the CET1019AS based plasmids and Examples 7 and 8 for the pcDNA based plasmids). […] The BAv9-1-Ig Fc proteins typically exist in solution as a dimeric fusion protein. The purified fusion proteins were assayed for binding activity using BIACORE (Example 9) and KINEXA (Example 11) assays.
(SPR reads the build-up and loss of mass on a sensor chip optically.)
B1 displayed a Kd of 2420 pM.
As to B2, the Kd is 784 pM.
As for B3, binding was put at a Kd of 1760 pM.
For B4, the Kd came to 861 pM.

The next test concerns the target T3, FLAG-tagged human BAFF (human, UniProt Q9Y275 134-285, limits assumed).
T3 construct: used in BIACORE (Ex. 9) and KINEXA (Ex. 11); also called huBAFF
Nature of the test: BIACORE SPR. On the procedure: as §1, §2, §3
Molecule B1 returned a dissociation constant Kd of 6.75 pM.
With B2, binding was characterised by a dissociation constant (Kd) of 6.76 pM.
The same measure, in the same setting: with B3 the figure was 14.1 pM.
As for B4, the Kd stood at 8.61 pM.

In another test the target is T2, FLAG-tagged recombinant human APRIL. The test can be described thus: KinExA. On the procedure: (§4) Equilibrium measurements were performed using FLAG-tagged, recombinant huBAFF and huAPRIL ligands. Fixed ligand concentrations of human BAFF or human APRIL were incubated with serial dilutions of the variant BCMA ECD-Ig fusion polypeptides, and free ligand was detected in a KINEXA 3200 Instrument. variant BCMA ECD-Ig fusion polypeptides were first diluted in equilibration buffer (1×PBS, pH 7.4, 1 mg/ml BSA) to a range of concentrations from 10 nM to 100 fM. The linear portion of the dilution series was typically 2-fold. Ligands were diluted in equilibration buffer to fixed concentrations ranging from 5 to 20 pM and then incubated with the variant BCMA-Ig dilutions in total reaction volumes ranging from 4.5 to 15 ml. Samples were incubated at room temperature for 48-72 hours to reach equilibrium. For each data point, a fresh column of 850 μl of bead slurry coated with Variant BAv-238475-Ig was introduced into the KINEXA flow cell. Equilibrated samples ranging from 1 to 5 ml reaction volume were injected at a flow rate of 0.25 ml/min. […] The DyLight 649 fluorescent signal was detected using the red filter set (620/30 nanometer excitation filter, 670/40 nanometer emission filter, 645 nanometer dichroic filter) on the KinExA instrument and converted to a voltage signal that was directly proportional to the concentration of free ligand in the equilibrated sample.
(§5) Table 5 provides the selectivities of exemplary variant BCMA polypeptides with respect to BAFF and APRIL.
On the technique in general: In KinExA the mixture passes briefly over coated beads that capture the unbound partner.
B5: the “Selectivity for huAPRIL (KD BAFF/KD APRIL)” value (“Selectivity for huAPRIL” for short) is 0.005 ratio.
B6: the “Selectivity for huAPRIL” value stood at 0.003 ratio.
Consider B7, for which the “Selectivity for huAPRIL” value was found to be 0.008 ratio.
For the molecule B8, the “Selectivity for huAPRIL” value was found to be 0.014 ratio.
Still for that read-out and setting: with B9 the figure was 1.19 ratio; with B10, 0.001 ratio.

For a further test, the target named is T3, FLAG-tagged human BAFF. The test can be described thus: KinExA. The protocol:
as §4, §5
Regarding B5, the “Selectivity for huBAFF (KD APRIL/KD BAFF)” value (from here on “Selectivity for huBAFF”) came to 221 ratio.
The same measure, in the same setting: with B6 the figure was 369 ratio; with B7, 129 ratio; with B8, 73.6 ratio.
For the molecule B9, the “Selectivity for huBAFF” value is 0.84 ratio.
For B10, the “Selectivity for huBAFF” value amounted to 957 ratio.

In another test the target is T1, FLAG-tagged cynomolgous APRIL. The test can be described thus: BIACORE SPR; NB = No binding. On the procedure:
as §1, §2
Using available information from the structures and published literature, several residues in BAv8-10 were targeted for substitution with conserved as well as non-conserved residues and their effect on BAFF and APRIL binding was assessed by BIACORE.
As for B11, the binding result was “no binding (tested: 150 nM)”.
Turning to B12, the binding result is reported as “no binding (tested: 150 nM)”.
The same measure, in the same setting: with B13 the entry was “no binding (tested: 150 nM)”; with B14, “no binding (tested: 150 nM)”.
As for B15, the binding result was “no binding (tested: 150 nM)”.
Consider B16, for which the binding result is listed as “no binding (tested: 150 nM)”.
Consider B17, for which the binding result is “no binding (tested: 150 nM)”.

A further test addresses T2, FLAG-tagged recombinant human APRIL. Nature of the test: KinExA. The source holds these as a separate data set. The protocol: as §4
(§6) The standard kinetic exclusion assays and data analyses described above were performed on protein preparations of various variant BCMA ECD-Ig fusion polypeptides, as well as Z-TACI-Ig and [S40G]huBCMA ECD-Ig fusion polypeptides. FIG. 8A, FIG. 8B, and Table 4 summarize the binding data for representative variant BCMA ECD-Ig polypeptides and controls in molar concentrations of huBAFF or huAPRIL determined by KINEXA binding assays.
Regarding B5, the “fold improvement over control” value was 0.008 fold.
B6: the Kd amounted to 70.8 pM and the “fold improvement over control” value stood at 0.00225 fold.
The matching figures for B7: 31 pM and 0.00514 fold.
Take B8: the Kd is 34 pM and the “fold improvement over control” value amounted to 0.00469 fold.
In the case of B9, the Kd was determined as 18.3 pM and the “fold improvement over control” value came to 0.00871 fold.
As for B10, the Kd came to 51.4 pM and the “fold improvement over control” value came to 0.0031 fold.

For another test, the target named is T3, FLAG-tagged human BAFF. Nature of the test: KinExA. This is another data set of the same source. The protocol: as §4, §6
Consider B5, for which the “fold improvement over control” value was found to be 2660 fold.
B6: the Kd was 0.192 pM and the “fold improvement over control” value amounted to 1180 fold.
The matching figures for B7: 0.24 pM and 940 fold.
For the molecule B8, the dissociation constant (Kd) was determined as 0.462 pM and the “fold improvement over control” value worked out at 488 fold.
B9: the dissociation constant (Kd) came to 21.8 pM and the “fold improvement over control” value is 10.4 fold.
On the same counts, the results for B10 are 0.0537 pM and 4200 fold.

A word on the Kd: it is a measure of binding affinity in units of concentration.
